Measured values reported in publication PMC12298772.
Values joined by “and” are separate entries in the source; they are usually repeats but may differ in a detail not shown here. Equal values may be shown once.

Key:
Experiment in all cases: Number and Brightness (N&B) fluorescence fluctuation microscopy
[1] = target: PUUV SP-mCh2-Gc (Puumala orthohantavirus glycoprotein Gc labelled with mCherry2) (Puumala orthohantavirus (PUUV), strain Sotkamo/V-2969/81)
[2] = target: PUUV SP-mCh2-Gn (Puumala orthohantavirus glycoprotein Gn labelled with mCherry2) (Puumala orthohantavirus (PUUV), strain Sotkamo/V-2969/81)
[3] = target: PUUV YFP-NP (Puumala orthohantavirus nucleoprotein labelled with yellow fluorescent protein) (Puumala orthohantavirus (PUUV), strain Sotkamo/V-2969/81) (UniProt P27313)

PUUV SP-mCh2-Gc (Puumala orthohantavirus glycoprotein Gc labelled with mCherry2) (natural protein)
stoichiometry N [1]: < 8

PUUV SP-mCh2-Gn (Puumala orthohantavirus glycoprotein Gn labelled with mCherry2) (natural protein)
stoichiometry N [2]: < 4

PUUV YFP-NP (Puumala orthohantavirus nucleoprotein labelled with yellow fluorescent protein) (from UniProt P27313 1-433) (natural protein)
stoichiometry N [3]: < 10 and 4 and 8
